{"source": "patent US20160355553A1", "about": "(Janssen / Centocor, published 2016)", "binders": {"B1": {"name": "CR9114 (antibody, V domains shown)", "VH": "QVQLVQSGAEVKKPGSSVKVSCKSSGGTSNNYAISWVRQAPGQGLDWMGGISPIFGSTAYAQKFQGRVTISADIFSNTAYMELNSLTSEDTAVYFCARHGNYYYYSGMDVWGQGTTVTVSS", "VL": "SYVLTQPPAVSGTPGQRVTISCSGSDSNIGRRSVNWYQQFPGTAPKLLIYSNDQRPSVVPDRFSGSKSGTSASLAISGLQSEDEAEYYCAAWDDSLKGAVFGGGTQLTVL"}, "B2": {"name": "CR8057 (antibody, V domains shown)", "VH": "EVQLVESGGGLVQPGGSLRLSCAASGFTDSVIFMSWVRQAPGKGLECVSIIYIDDSTYYADSVKGRFTISRHNSMGTVFLEMNSLRPDDTAVYYCATESGDFGDQTGPYHYYAMDV", "VL": "QSALTQPASVSGSPGQSITISCTGSSGDIGGYNAVSWYQHHPGKAPKLMIYEVTSRPSGVSDRFSASRSGDTASLTVSGLQAEDEAHYYCCSFADSNILI"}, "B3": {"name": "CR6261 (antibody, V domains shown)", "VH": "EVQLVESGAEVKKPGSSVKVSCKASGGPFRSYAISWVRQAPGQGPEWMGGIIPIFGTTKYAPKFQGRVTITADDFAGTVYMELSSLRSEDTAMYYCAKHMGYQVRETMDVWGKGTTVTVSS", "VL": "QSVLTQPPSVSAAPGQKVTISCSGSSSNIGNDYVSWYQQLPGTAPKLLIYDNNKRPSGIPDRFSGSKSGTSATLGITGLQTGDEANYYCATWDRRPTAYVVFGGGTKLTVLG"}}, "key": {"[1]": {"target": "H3 Mini-HA cluster 1+2+3+4+5+6+7-N405E (influenza A virus H3N2, UniProt O11283 17-566)", "assay": "FACS, HEK293F cells"}, "[2]": {"target": "H3 Mini-HA cluster 1+2+3+4+5+6+7-N405D (influenza A virus H3N2, UniProt O11283 17-566)", "assay": "FACS, HEK293F cells"}, "[3]": {"target": "H3 Mini-HA cluster 1+2+3+4+5+6+7-N405A (influenza A virus H3N2, UniProt O11283 17-566)", "assay": "FACS, HEK293F cells"}, "[4]": {"target": "H3 Mini-HA cluster 1+5 N405D (influenza A virus H3N2, UniProt O11283 17-566)", "assay": "FACS on HEK293F [D00010 FIG. 8B]"}, "[5]": {"target": "H3 Mini-HA cluster 1+5 N405A (influenza A virus H3N2, UniProt O11283 17-566)", "assay": "FACS on HEK293F [D00010 FIG. 8B]"}, "[6]": {"target": "H3 Mini-HA cluster 1+5 N405E (influenza A virus H3N2, UniProt O11283 17-566)", "assay": "FACS on HEK293F [D00010 FIG. 8B]"}, "[7]": {"target": "full-length HA of H1 A/Brisbane/59/2007 with cleavage site mutation R343Q (influenza A virus H1N1, UniProt B4URD6 18-565)", "assay": "FACS, HEK293F cells"}, "[8]": {"target": "miniHA cluster1+4 (A/Brisbane/59/2007) (influenza A virus H1N1, UniProt A8C8J4 18-565)", "assay": "FACS on HEK293F"}}}
{"binder": "B1", "values": [{"measurement": "binding result", "setting": "[1]", "value": "no binding (tested: 5 microgram/ml)"}, {"measurement": "binding result", "setting": "[2]", "value": "no binding (tested: 5 microgram/ml)"}, {"measurement": "binding result", "setting": "[3]", "value": "no binding (tested: 5 microgram/ml)"}, {"measurement": "binding result", "setting": "[4]", "value": "no binding (tested: 5 ug/ml)"}, {"measurement": "binding result", "setting": "[5]", "value": "no binding (tested: 5 ug/ml)"}, {"measurement": "binding result", "setting": "[6]", "value": "no binding (tested: 5 ug/ml)"}]}
{"binder": "B2", "values": [{"measurement": "binding result", "setting": "[7]", "value": "no binding (tested: 5 microgram/ml)"}, {"measurement": "binding result", "setting": "[8]", "value": "no binding (tested: 5 ug/ml)"}, {"measurement": "binding result", "setting": "[4]", "value": "no binding (tested: 5 ug/ml)"}, {"measurement": "binding result", "setting": "[5]", "value": "no binding (tested: 5 ug/ml)"}, {"measurement": "binding result", "setting": "[6]", "value": "no binding (tested: 5 ug/ml)"}]}
{"binder": "B3", "values": [{"measurement": "binding result", "setting": "[4]", "value": "no binding (tested: 5 ug/ml)"}, {"measurement": "binding result", "setting": "[5]", "value": "no binding (tested: 5 ug/ml)"}, {"measurement": "binding result", "setting": "[6]", "value": "no binding (tested: 5 ug/ml)"}]}
